# Laboratory results as given in the DeepSol protein solubility set.
# Test: soluble on expression in E. coli; label from the status in PepcDB or PDB records
row,Sequence,soluble on expression in E. coli
1,MASAHQTPADANGGESRDEILRAAAELFMEFGYAATSIDAVAQRLGSTKGRIYHHYRSKADLFFDVQVTAMNRLTAQVEPLAREGGGAVGRLAAMALRHTQILLKEMPMQKVAVQGLERHLLEASSAAKRLRAVVKMRDDYEQMFVEVIDDGIREGSFVDLPPRLLSKPFFGALNWATVWYSQRRLQSEEAIDDIAHALAAYALRGLLKDSNDEAARETALFRYDLG,not soluble
2,MGSDKIHHHHHHMVSRYLEHLEHTFSTRLFQRNTRKISLTPAGEKALLYCENILQQQQLLQELAAPEQHNGTIRFTCGLFLFELGVAECIRQFKRQHPHIQFDVYLTESTMDLIDAQVDLALRITQKVADGLIARPVCQIESVFCAHPDYLKQHSPLLHPRQLIQHECIAHHSQHQFWTLFDNEQQPQNYPLNVTFKSNDVNALYDMCLHAQGVAMLPTLLVEKDLKEKRLKALFKNFTAPELSLSVVYASRQHLPRITQEFIAFMIENLDFYLKPQN,not soluble
3,MKFDTIINQPVIETERFDLRPLRKSDMGLIEHYARDERVARMTTSIPHPLPPGMAEGFVARAMSEERTEDVWAMDATRDGGPELMGLISLERMDRNQSEVGYWVAPVFWNTGIASMAVEALVNANPLGNATMFASVFQDNPASARVLTHCGFQYLGDAESYSVARDAAVPTWTYSRKL,not soluble
4,MGSDKIHHHHHHMDHQMEDLLEHWLPLADDAWVLAVITHIQGSSYRKPGAMMLFHEFGQGAGILSGGCLEADLRRHAQNAMLSHQIGCVSYDATDESDASYRLGCGGKVDIMLIPLLKENHDLGLVDIVQAFRKGQSGFYQLPLVPAGSDARSYSAQFYSSENVPFATADFAKAGVLSQPSGDTLIIPIRPRFHLGIFGGGIDAKPVAAIAHSLGWQVSVFDSRTAYARTADFPHAHIVKQSPDDAAALIANLDCAVVMHHNLTLDAAALKVIQPFALKYVALLGPAHRRDKVLSIAALNVDSFSGFFSAPAGLALGGELPSAIALSILAQCHGVLHGAAFSTLDGMMP,not soluble
5,MGSDKIHHHHHHMNNFNNEIKLILQQYLEKFEAHYERVLQDDQYIEALETLMDDYSEFILNPIYEQQFNAWRDVEEKAQLIKSLQYITAQCVKQVEVIRARRLLDGQASTTGYFDNIEHCIDEEFGQCSIASNDKLLLVGSGAYPMTLIQVAKETGASVIGIDIDPQAVDLGRRIVNVLAPNEDITITDQKVSELKDIKDVTHIIFSSTIPLKYSILEELYDLTNENVVVAMRFGDGIKAIFNYPSQETAEDKWQCVNKHMRPQQIFDIALYKKAAIKVGITDV,not soluble
6,GPLGSAGSSWQCDTCLLQNKVTDNKCIACQAAKLPLKETAKQTGIGTPSKSDKPASTSGTGFGDKFKPAIGTWDCDTCLVQNKPEAVKCVACETPKPG,soluble
7,GEYKMMMARVAALPEDYQFVFKKIQNYMWNFSAGNGMDMLHIQYELIDLFEAGAAEGRQVLDITGEDVASFADELVANAKTYVSK,soluble
8,YIKYFNDKTIDEELERDKRVTWIVEFFANWSNDCQSFAPIYADLSLKYNCTGLNFGKVDVGRYTDVSTRYKVSTSPLTKQLPTLILFQGGKEAMRRPQIDKKGRAVSWTFSEENVIREFNLNEL,soluble
9,MGSDKIHHHHHHMNVLASKDFRTEKRPLPFECIALVLQGGGALGAYQAGVYEALAEADIHPDWVAGVSIGAINSAIIAGNEPTERVPKLRAFWREISANPLLDWAAASPALAPTGTLPRLLFNQFSAACALVAGAPGFFSLRQPVPWLQADGSLEGTSFYETKHLKSTLERLVDFDRINAGRMRFSVGAVNVRSGNFVYFDNDQHTIRPEHVMASGSLPPGFPAVEIDGEFYWDGGLISNTPLQWVVEHGARQDTLAFQVDLWSARGEFPRNLSEVATRQKEIQYASRSRAHTDQFKQYQRARHTLASLLSKLPPELLDSEEATALSSIADHKVYKLVHLTYRSKQHEGHSKDHEFSRLSMEEHWRAGYFDAVRTLRHPEALLRPDNLEGVSTYDLAEDGRE,not soluble
10,MSLIYFETERLIARDYLTNDYLPFSQMNADEQVMKYFPARLTQNESNAFLDRIQEELKSLGYGLFAIEVKSTGEFIGFTGFHEATFEATFTPCTEIGWRLKHSAWNQGYATEAALGALALAEEINTINEIYSFTAALNKPSENVMKKIHLTKIATFEHPALVNGDPLKPHVLYKKAEGHHHHHH,soluble
11,MGSDKIHHHHHHMKQLPLDIIPPPPTLSNFVTGRNAELLQTLDNLLMMRKHERFVYIWGGTGCGKSHLLQGVASACKRNDMNTLYFACGERTSFANGSEADCVMVDDVDRLGADAQIGLFHLYNRIRDEGQAFLLVSGSVAPTQLKLRADLLTRLAWGLVYEVHELTDEEKMEAMKSHASSRGLALPQEVCDYLLRHERRDLTSLMAKLNALDKYSLASHRKITVPLVRELLQAAS,not soluble
12,PQEEVVRLHASSGTTGKPTVVGYTQNDIDTWANVVARSIRAAGGRKGDKVHVSYGYGLFTGGLGAHYGAERLGCTVIPMSGGQTEKQVQLIRDFHPDIIMVTPSYMLNLADEIERQGIDPHDLKLRLGIFGAEPWTDELRRSIEQRMGINALDIYGLSEIMGPGVAMECIETKDGPTI,not soluble
13,MATQARLPLPVGSTTSVSVVIPAKNVAAYVGETLASALAQGEVTEVIVVDDGSTDNTIAIVRAIRDPRLRLMTNDSAGVSAARNLGARHASGEWLLFLDADDRLRPGAVAALLAAARGAPRAVLVYGDYNTIDSEGRQVGRRDLLKGRRKPSGDVLTRLAASNFIVNGGIALARAEAFRAIGGFDTSLRYCEDWHCWCRLAAIGEFEFAPKLLLDYRLHTANTMNAAVRTPQDFFPAIARVFDDGLILARLPEGTAARLRQAAEIHLVTYSAMQAVRFGRYRQAFTYLGMVGRRSLKSLPRSALRVALACFGILEHHHHHH,not soluble
14,MGSSHHHHHHSSGLVPRGSHMNIGDTLNHSLLNHPLMLSGSTCKTLSDYTNQWLVLYFYPKDNTPGSSTEGLEFNLLLPQFEQINATVLGVSRDSVKSHDSFCAKQGFTFPLVSDSDAILCKAFDVIKEKTMYGRQVIGIERSTFLIGPTHRIVEAWRQVKVPGHAEEVLNKLKAHAEQ,soluble
15,MAKNPKDGESRTFLISVAAELAGMHAQTLRTYDRLGLVSPRRTSGGGRRYSLHDVELLRQVQHLSQDEGVNLAGIKRIIELTSQVEALQSRLQEMAEELAVLRANQRREVAVVPKSTALVVWKPRR,soluble
16,MSADENNLIWIDLEMTGLDPERDRIIEIATLVTDASLNILAEGPTIAVHQSDAQLALMDDWNVRTHTGSGLVDRVKASTMGERDAELATIEFLKTWVPAGKSPICGNSIGQDRRFLFKYMPELEAYFHYRYLDVSTLKELARRWKPEILAGFTKQGTHQAMDDIRESVAELAYYREHFIKL,not soluble
17,AARQMEALNRGLVAVKTDGGIFVSWRFLGTENASVLFNVYRDGQKLNAAPVKTTNYVDKNGSAGSTYTVRAVVNGTEQPASEKASVWAQPYHSVPLDKPAGGTTPKGESYTYSANDASVGDVDGDGQYELILKWDPSNSKDNSQDGYTGDVLIDAYKLDGTKLWRINLGKNIRAGAHYTQFMVYDLDGDGKAEVAMKTADGTKDGTGKVIGNANADYRNEQGRVLSGPEYLTVFQGSTGKELVTANFEPARGNVSDWGDSYGNRVDRFLAGIAYLDGQRPSLIMTRGYYAKTMLVAYNFRDGKLSKLWTLDSSKSGNEAFAGQGNHNLSIADVDGDGKDEIIFGSMAVDHDGKGMYSTGLGHGDALHTGDLDPGRPGLEVFQVHEDKNAKYGLSFRDAATGKILWGVYAGKDVGRGMAADIDPRYPGQEVWANGSLYSAKGVKIGSGVPSSTNFGIWWDGDLLREQLDSNRIDKWDYQNGVSKNMLTASGAAANNGTKATPTLQADLLGDWREEVVWRTEDSSALRIYTTTIPTEHRLYTLMHDPVYRLGIAWQNIAYNQPPHTSFFLGDGMAEQPKPNMYTPLEHHHHHH,soluble
18,MGSDKIHHHHHHMSGDTCLCPASGAKPKISGFKGGGLGNKYVQLNVGGSLYYTTVRALTRHDTMLKAMFSGRMEVLTDKEGWILIDRCGKHFGTILNYLRDDTITLPQSRQEIQELMAEAKYYLIQGLVSTCQTALQDKKDSYQPVCNIPIITSLREEDRLIESSTKPVVKLLYNRSNNKYSYTSNSDDHLLKNIELFDKLSLRFNGRVLFIKDVIGDEICCWSFYGQGRKLAEVCCTSIVYATEKKQTKVEFPEARIYEETLNVLLYETPRVPDNSLLEATSRSRSQASPSEDEDTFELRDRVRRIHVKRYSTYDDRQLGHQSTHRD,not soluble
19,MGNYLLRKLSCLGENQKKPKKGNPDEERKRQEMTTFERKLQDQDKKSQEVSSTSNQENENGSGSEEVCYTVINHIPHQRSSLSSNDDGYENIDSLTRKVRQFRERSETEYALLRTSVSRPCSCTHEHDYEVVFPH,soluble
20,MTTLRTLMAVSLVLNLAACGFKLRGQVSELPFERVYITAPAGLTIGSDLERVISTHTRAKVVNKAEKSEAIIQIVHAIREKRILSLSESGRVREFELVYRVAARLLDAHNAELASLQEIRLTRILPFLDAQELAKAAEEEMLYKDMQKDAVQQILRQVSAVTSAGLEHHHHHH,not soluble
21,MTTKLQKRVNDLDEDIPRPPFSSHSDKTEDKEGVSEACPVCEKTVQNPCVLETGYVACYPCAISYLVNNEGHCPVTNKKLLGCTYNKHTNKWEVVTGIRKLLI,not soluble
22,MGSDKIHHHHHHMAPRKVIITCAVTGSVHTPSMSPYLPVTPDQIASDAIAAAEAGASILHLHARDPKDGRPTADPDVFMQFLPRIKQATDAVINITTGGSSLMTLDQRLAAPLRAEPEMCSLNMGSMNFALFPMLDKPREWQHEWEPKLLEATRDTIFKNTFADMEGVLERLGKGCGTRFEFECYDVGHLYSLAHFRDRGLVSGPLFIQFVLGILGGIGADPDNLVHMKRIADKLFGDSYQFSVLAAGRQQMPLISIAAAMGGNVRVGLEDSLYDGRQLAKSNADQVRRIRGILDGLSLEVATPAEAREMLALKGGDRVAF,not soluble
23,MVRRLLALSRPLYWLYEKRLLREVKRGPMPRHLGLILDGNRRYARALGLSPTKGHEFGVQKAYEVLEWCLEMGIKTVTVWVFSTDNFKRPPEEVETLMNLFLREAERMAEDHRILEHQVRVRFIGRREGFSPEVVRAIERLERRTEGHRGMFLNIAMGYGGREEIVDAVKRLLLEAEARGLSPKEVAEGLTPEDIARHLYTAGLPDPDFIIRTSGEIRLSGFLLWQSAYSEFYFADVLWPEFRKIDFLRALRSYQARERRFGR,soluble
24,MEKLTKRQQDILDFIKLKVQEKGYPPSVREIGQAVGLASSSTVHGHLSRLEEKGYIRRDPTKPRAIEILGEDRMDTETQSVIQVPIVGKVTAGLPITAVESVEEHFPLPASIVAGADQVFMLRISGDSMIEAGIFDGDLVVVRQQQSAYNGEIVVALTEDNEATVKRFYKEKDHFRLQPENSSLEPIILKQVSVIGKVIGVYRDLH,not soluble
25,MAHHHHHHMLRVSCRFFGALQEIFSRGQGVWNLDFGNSPTTEDLIFNSAPKTSTPPFHVLDLEGNIVNKINEPVVPKETLVKIMETMIRSNTIDNILLEAQRQGRISFYLTALGEEATVVGTAAGLEIRDEAFLQYREAGFLLYRGYNIPQLVAQCMGNVEDVLKGRQMPIHYGSRELNVHMVSSPLATQIPHAAGAGYAFRLENEELSDESKSRVAVVIFGEGAASEGDFHGGVNFAAATGSNTLFVVRNNGYAISTPARVQYKGDGVLARGIGYGIPSARVDGQDVLAILQAVQQARQIIRTTNQPVLIEALCYRLQHHSSSDDSGMYRSSDEIENFLALSPLDRFEKFLVKRDLWTAEHTGALAKQVREELLQELRRQELLPHWPADVMHDDVYKVKTPDLVKAQKELQAHYERNRGFYGK,not soluble
